Assay results taken from article PMC4130924 (Protein & Cell, 2014).

B2: Human ubiquitin C-terminal hydrolase Uch37, full-length (enzyme, UniProt Q9Y5K5 1-329, looked up)
chain: MTGNAGEWCLMESDPGVFTELIKGFGCRGAQVEEIWSLEPENFEKLKPVHGLIFLFKWQPGEEPAGSVVQDSRLDTIFFAKQVINNACATQAIVSVLLNCTHQDVHLGETLSEFKEFSQSFDAAMKGLALSNSDVIRQVHNSFARQQMFEFDTKTSAKEEDAFHFVSYVPVNGRLYELDGLREGPIDLGACNQDDWISAVRPVIEKRIQKYSEGEIRFNLMAIVSDRKMIYEQKIAELQRQLAEEEPMDTDQGNSMLSAIQSEVAKNQMLIEEEVQKLKRYKIENIRRKHNYLPFIMELLKTLAEHQQLIPLVEKAKEKQNAKKAQETK
B3: Full-length Uch37 containing only one cysteine (C27), labelled with Alexa Fluor 555 and Alexa Fluor 647 (enzyme, human, UniProt Q9Y5K5 1-329, looked up)
chain: MTGNAGEWALMESDPGVFTELIKGFGCRGAQVEEIWSLEPENFEKLKPVHGLIFLFKWQPGEEPAGSVVQDSRLDTIFFAKQVINNAAATQAIVSVLLNATHQDVHLGETLSEFKEFSQSFDAAMKGLALSNSDVIRQVHNSFARQQMFEFDTKTSAKEEDAFHFVSYVPVNGRLYELDGLREGPIDLGAANQDDWISAVRPVIEKRIQKYSEGEIRFNLMAIVSDRKMIYEQKIAELQRQLAEEEPMDTDQGNSMLSAIQSEVAKNQMLIEEEVQKLKRYKIENIRRKHNYLPFIMELLKTLAEHQQLIPLVEKAKEKQNAKKAQETK
modifications: Cys27 conjugated to Alexa Fluor 555 or Alexa Fluor 647 (randomly)

Columns and labels:
[1] = biological target: B3; experiment: FRET or BRET; Uch37 (C27 only) randomly labelled with Alexa Fluor 555 and 647, 250 nmol/L, excited at 550 nm; then an excess molar amount of Rpn13C added, 30 min; settings: both partners purified
[2] = biological target: B2; experiment: SPR; Biacore3000, 25°C, PBS; Rpn13C immobilised on CM5 by amine coupling, Uch37 15.6-500 nmol/L flowed over; 1:1 Langmuir model; settings: both partners purified
[3] = biological target: the molecule itself; experiment: time-resolved SAXS; stopped-flow mixing of Uch37 and Rpn13C at a 1:1 monomer molar ratio, overall 3.7 mg/mL, 8 ms to 600 s; I0 and Rg against time
[4] = biological target: the molecule itself; experiment: FRET or BRET; Uch37 (C27 only) randomly labelled with Alexa Fluor 555 and 647, 250 nmol/L, excited at 550 nm; then an excess molar amount of Rpn13C added, 30 min

B1: Rpn13C (Rpn13 residues 270-407) (domain or fragment, UniProt Q16186 270-407, looked up)
chain: ILATMNVPAGPAGGQQVDLASVLTPEIMAPILANADVQERLLPYLPSGESLPQTADEIQNTLTSPQFQQALGMFSAALASGQLGPLMCQFGLPAEAVEAANKGDVEAFAKAMQNNAKPEQKEGDTKDKKDEEEDMSLD
B1 was tested, and the binding result [1] was “binds” and the Kd [2] was 5.35 nM.

B2: binds [3].

B3: binds [4].
